Results as given in patent publication US20190144558A1 (MAGENTA THERAPEUTICS, published 2019).
Numbering of substitutions follows the chain as printed.

B1: Antibody 56 (antibody, human IgG1, kappa, V domains shown)
VH: QVQLVQSGAEVKKPGSSVKVSCKASGGTFSLYAISWVRQAPGQGLEWMGGIIPAFGTANYAQKFQGRVTITADESTSTAYMELSSLRSEDTAVYYCARGGLDTDEFDLWGRGTLVTVSS
VL: DIQMTQSPSSLSASVGDRVTITCRASQSINSYLNWYQQKPGKAPKLLIYAASSLQSGVPSRFSGSGSGTDFTLTISSLQPEDFATYYCQQGVSDITFGGGTKVEIKR
notes: also called Ab56; HC-56/LC-56
B2: Antibody 54 (antibody, human IgG1, kappa, V domains shown)
VH: B1 VH with L31S, A54I
VL: B1 VL
notes: also called Ab54; HC-54/LC-54
B3: Antibody 57 (antibody, human IgG1, kappa, V domains shown)
VH: B1 VH with A54H, T57L
VL: B1 VL
notes: also called Ab57; HC-57/LC-57
B4: Antibody 55 (antibody, human IgG1, kappa, V domains shown)
VH: B1 VH with S30R, L31I, A54D, T57V
VL: B1 VL
notes: also called Ab55; HC-55/LC-55
B5: Antibody 67 (antibody, human IgG1, kappa, V domains shown)
VH: EVQLVESGGGLVQPGGSLRLSCAASGFTFSDADMDWVRQAPGKGLEWVGRTRNKAGSYTTEYAASVKGRFTISRDDSKNSLYLQMNSLKTEDTAVYYCAREPKYWIDFDLWGRGTLVTVSS
VL: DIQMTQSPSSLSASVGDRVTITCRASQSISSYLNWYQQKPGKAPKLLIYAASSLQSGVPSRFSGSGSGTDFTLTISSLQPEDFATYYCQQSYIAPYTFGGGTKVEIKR
notes: also called Ab67; HC-67/LC-67
B6: Antibody 69 (antibody, human IgG1, kappa, V domains shown)
VH: B5 VH with S30V, A32H, A55L
VL: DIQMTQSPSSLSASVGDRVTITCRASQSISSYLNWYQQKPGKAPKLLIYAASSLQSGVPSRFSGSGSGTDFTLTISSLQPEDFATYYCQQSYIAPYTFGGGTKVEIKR
notes: also called Ab69; HC-69/LC-69
B7: Antibody 66 (antibody, human IgG1, kappa, V domains shown)
VH: B5 VH with A32H, D33Y, G56S
VL: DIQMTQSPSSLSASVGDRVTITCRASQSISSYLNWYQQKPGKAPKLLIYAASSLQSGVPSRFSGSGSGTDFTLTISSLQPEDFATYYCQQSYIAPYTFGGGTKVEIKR
notes: also called Ab66; HC-66/LC-66
B8: Antibody 68 (antibody, human IgG1, kappa, V domains shown)
VH: B5 VH with G16R, A23T, A32H, D35N, K54A
VL: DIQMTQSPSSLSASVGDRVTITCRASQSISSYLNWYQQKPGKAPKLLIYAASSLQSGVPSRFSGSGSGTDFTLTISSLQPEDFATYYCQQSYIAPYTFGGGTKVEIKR
notes: also called Ab68; HC-68/LC-68
B9: Antibody 58 (antibody, human IgG1, kappa, V domains shown)
VH: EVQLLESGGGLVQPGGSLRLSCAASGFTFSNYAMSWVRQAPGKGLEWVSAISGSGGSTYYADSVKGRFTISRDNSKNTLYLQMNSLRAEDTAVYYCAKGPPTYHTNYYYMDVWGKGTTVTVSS
VL: DIQMTQSPSSVSASVGDRVTITCRASQGISSWLAWYQQKPGKAPKLLIYAASSLQSGVPSRFSGSGSGTDFTLTISSLQPEDFATYYCQQTNSFPYTFGGGTKVEIKR
notes: also called Ab58; HC-58/LC-58
B10: Antibody 61 (antibody, human IgG1, kappa, V domains shown)
VH: EVQLLESGGGLVQPGGSLRLSCAASGFTFSSYVMIWVRQAPGKGLEWVSSISGDSVTTYYADSVKGRFTISRDNSKNTLYLQMNSLRAEDTAVYYCAKGPPTYHTNYYYMDVWGKGTTVTVSS
VL: B9 VL
notes: also called Ab61; HC-61/LC-61

Each binder was assayed against T1, rhesus CD117 ectodomain (rhesus, UniProt F6V858 26-524) (assay: BLI (Octet Red96), IgG on anti-human Fc sensors, rhesus CD117 ectodomain at 33.3 and 11 nM, 1:1 fit).
T1 construct: extracellular domain
Protocol: Antibody binding studies were performed at 25 degrees celsius in 1×PBS supplemented with 0.1% w/v bovine serum albumin with a Pall ForteBio Octet Red96 using biolayer interferometry (BLI).

Binder | Kd [nM] | koff [s⁻¹] | kon [M⁻¹ s⁻¹]
B1 | 0.28 | 8.57e-05 | 306000
B2 | 2.6 | 0.000793 | 304000
B3 | 0.288 | 8.57e-05 | 298000
B4 | 0.284 | 8.96e-05 | 315000
B5 | 0.376 | 8.57e-05 | 228000
B6 | 0.528 | 0.000126 | 240000
B7 | 66 | 0.0258 | 391000
B8 | 0.374 | 8.98e-05 | 240000
B9 | 30.3 | 0.00855 | 282000
B10 | 20.5 | 0.00472 | 230000
